Tests used:
[1] = test system: DLD-1 KRAS MUT cells (heterozygous KRAS G13D); test: Phosflow analysis of intracellular signaling, DLD-1 KRAS MUT; assay type: cell-based; details: 30 min 10 ng/mL recombinant human IL-22
Protocol: Therefore this isogenic pair differs only in KRAS mutation status and allows a clean system for comparison of KRAS-dependent IL-22 effects without inter-cell line mutational heterogeneity. (A) Representative FACS plots of IL-22RA1 expression and quantification of mean fluorescence intensity (WI) showing similar IL-22RA1 expression in the isogenic pair (4 experimental replicates). […] MTT was added 2 h prior to end of 48 h incubation. Formazan particles were dissolved in DMSO and absorbance was measured at 540 nm. Raw absorbances are blank corrected, normalized to a no treatment, and represented as a % viability compared to the no treatment condition. n=5 independent experiments with 3 experimental replicates. p values computed by non-parametric Mann-Whitney test comparing 5 FU alone to IL-22 pretreatment with 5 FU for each DLD-1 line.
Adherent Colo205, T84, SW480, and DLD-1 cells were dissociated using StemPro® Accutase® (Life Technologies), filtered through […] filters, and counted by Trypan Blue exclusion. 5×10^5 cells of each line were stained with 5 μL Human IL-22 R alpha 1 Phycoerythrin MAb (Clone 305405) (R&D Systems) or […] isotype rat anti-mouse IgG1 PE (BD Biosciences) and incubated for 30 minutes at room temperature. Cells were washed with PBS, 0.1% BSA, 2 mM EDTA and acquired on the BD LSRII. Analysis was performed using FlowJo (Tree Star) software. For analysis of intracellular signaling pathways by phosflow, DLD-1 isogenic cells were plated in 6 well plates (1.5 million cells/well) in serum free RPMI and allowed to adhere overnight. DLD-1 cells were then stimulated or not for 30 minutes with increasing doses of recombinant human IL-22 (0.001 ng/mL-100 ng/mL). Cells were dissociated with TrypLE, fixed for 10 min at 37° C. with BD Cytofix Fixation Buffer. Cells were then permeabilized in BD Phosflow Perm Buffer III for 30 min on ice. […]

[2] = test system: SOCS3 expression in CRC lines (Colo205, LS103, SW948, T84, SW480, HCT116); test: qPCR of SOCS3 after IL-22 stimulation of CRC cell lines; assay type: cell-based, human; details: 24 h stimulation with IL-22, n=3
Description: (A) qPCR analysis of IL22RA1 expression level on 3 KRAS-WT (Colo205, LS103, SW948) and 3 KRAS-mutant (T84, SW480, HCT116) CRC cell lines. n=3 *p<0.05, **p<0.01, one-way ANOVA with Tukey's post test for multiple comparisons. (B) Representative FACS plots of IL-22RA1 expression on the Colo205 (KRAS-WT, IL-22RA1^high), T84 (KRAS-Mut, IL-22RA1^high), and SW480 (KRAS-mutant, IL-22RA1^low) lines. (C) Western blot analysis of activation of STAT3, ERK, and Akt signaling pathways in 6 CRC lines following 24 h stimulation with 1 ng/mL IL-22, 10 ng/mL IL-22, and 1 ng/mL IL-6. 1 blot representative of 3 independent experiments.
Colo205, LS1034, SW948, SW480, T84, and HCT116 (ATCC) colorectal cancer cell (CRC) lines were a generous gift from Dr. Simon Leedham and were confirmed to be mycoplasma free. X-MAN DLD-1 isogenic cells were purchased from Horizon Discovery. […]
RNA was extracted from cultured monolayers of CRC lines, suspensions of LIM1863 spheroids, and CRC line derived spheres using the RNeasy Mini Kit (Qiagen) according to the manufacturers protocol. cDNA was synthesized using the High-Capacity cDNA Reverse Transcription Kit (Applied Biosystems). Gene expression was analyzed using Taqman® Gene Expression Assays (Applied Biosystems) and run with Precision 2× Master Mix (Primerdesign) in 384 well plates using the ViiA7 Real-Time PCR System (Applied Biosystems). […]

B1: IL-22: recombinant human IL-22 (R&D Systems), IL-10 superfamily cytokine; human sequence SEQ ID NO: 5 (protein, listed as Homo sapiens)
chain: MAALQKSVSSFLMGTLATSCLLLLALLVQGGAAAPISSHCRLDKSNFQQPYITNRTFMLAKEASLADNNTDVRLIGEKLFHGVSMSERCYLMKQVLNFTLEEVLFPQSDRFQPYMQEVVPFLARLSNRLSTCHIEGDDLHIQRNVQKLKDTVKKLGESGEIKAIGELDLLFMSLRNACI
Phosphorylated ERK1/2 [1]: not IL-22 inducible | Phosphorylated S6 [1]: IL-22 inducible phosphorylated S6 | Phosphorylated STAT3 [1]: identical extent of phosphorylated STAT3 | SOCS3 expression (confirmation of active downstream IL-22 signaling) [2]: upregulation of SOCS3
